Assay results: publication PMC4288179, “Synergic interplay of the La motif, RRM1 and the interdomain linker of LARP6 in the recognition of collagen mRNA expands the RNA binding repertoire of the La module”

Target: T1, HsLARP6 La module (70-300) (Homo sapiens, UniProt Q9BRS8 70-300)
T1 sequence: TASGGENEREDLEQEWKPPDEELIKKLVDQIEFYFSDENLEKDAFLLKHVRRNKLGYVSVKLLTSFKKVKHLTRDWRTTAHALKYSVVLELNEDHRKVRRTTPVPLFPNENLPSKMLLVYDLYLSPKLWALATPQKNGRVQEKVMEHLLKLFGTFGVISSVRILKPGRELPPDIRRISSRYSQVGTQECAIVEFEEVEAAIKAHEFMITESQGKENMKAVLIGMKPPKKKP
Test: ITC; ITC: 20 mM Tris pH 7.25, 100 mM KCl, 5 mM MgCl2, 1 mM DTT, 298 K; protein titrated into RNA
Conditions: protein: recombinant, tags: N-terminal His6, TEV-cleaved for initial ITC

UUUU (ssRNA) [UUUUOH RNA]
Kd (single strand): 6 µM

CAAAGAGUCUACAUGGGUCAUGUUCAGCUUUG (structured_RNA) [32 nt RNA]
Kd (stem-loop with internal bulge): 0.125 µM
